Source: publication PMC10252337

Tests used:
[1] = biological target: eel luteinizing hormone receptor D576G (constitutively activating mutant) (eel)
[2] = biological target: eel luteinizing hormone receptor, wild type (eel)
[3] = biological target: eel luteinizing hormone receptor D576G (constitutively activating mutant) (eel); remark: listed apart in the source
[4] = biological target: eel luteinizing hormone receptor R476H (inactivating mutant) (eel)
[5] = biological target: eel luteinizing hormone receptor, wild type (eel); remark: listed apart in the source

Row | EC50 of cAMP production (HTRF) in CHO-K1 cells expressing the receptor, stimulated with rec-eel LH for 30 min [1] [µg/mL] | EC50 of cAMP production (HTRF) in CHO-K1 cells expressing the receptor, stimulated with rec-eel LH for 30 min [2] [µg/mL] | plateau of agonist-induced loss of cell-surface receptor (ELISA on HEK-293 cells, 0-60 min, one-phase exponential decay) [3] | t1/2 of agonist-induced loss of cell-surface receptor (ELISA on HEK-293 cells, 0-60 min, one-phase exponential decay) [3] [min] | plateau of agonist-induced loss of cell-surface receptor (ELISA on HEK-293 cells, 0-60 min, one-phase exponential decay) [4] | t1/2 of agonist-induced loss of cell-surface receptor (ELISA on HEK-293 cells, 0-60 min, one-phase exponential decay) [4] [min] | plateau of agonist-induced loss of cell-surface receptor (ELISA on HEK-293 cells, 0-60 min, one-phase exponential decay) [5] | t1/2 of agonist-induced loss of cell-surface receptor (ELISA on HEK-293 cells, 0-60 min, one-phase exponential decay) [5] [min] | Substance
1 | 0.0948 | 0.177 | 59.8 % of control | 0.6 | 61.9 % of control | 0.6 | 64.2 % of control | 0.9 | recombinant eel luteinizing hormone, single-chain eel LHβ/α (ligand)
2 |  |  | 46.3 % of control | 2.1 | 42.6 % of control | 1.9 | 56.8 % of control | 2.5 | recombinant equine chorionic gonadotropin (from UniProt P08751 21-169; P01220 25-120) (ligand)
